Experimental data taken from PMC4726468, “Innovation of a Regulatory Mechanism Modulating Semi-determinate Stem Growth through Artificial Selection in Soybean”.

T1: Dt2-6xHis (soybean; cultivar of the cloned CDS not …, UniProt I1N4Q7 1-253)
T1 sequence: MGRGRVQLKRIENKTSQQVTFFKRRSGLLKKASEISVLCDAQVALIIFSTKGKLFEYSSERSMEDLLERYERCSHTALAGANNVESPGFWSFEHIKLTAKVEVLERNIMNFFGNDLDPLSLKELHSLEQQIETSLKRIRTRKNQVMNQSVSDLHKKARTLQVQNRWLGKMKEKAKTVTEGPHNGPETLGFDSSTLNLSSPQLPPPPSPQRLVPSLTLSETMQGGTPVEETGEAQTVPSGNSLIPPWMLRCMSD

B1: Dt1-CArG5 (dsDNA)
DNA 1: TCTTTTACCAATATTGGAACTTGG
DNA 2: CCAAGTTCCAATATTGGTAAAAGA
B2: Dt1-CArG2 (dsDNA)
DNA 1: CTTATACCAAAATAAGCAACTAAC
DNA 2: GTTAGTTGCTTATTTTGGTATAAG
B3: Dt1-CArG1 (dsDNA)
DNA 1: AATATCCAAATTTAGAAATATG
DNA 2: CATATTTCTAAATTTGGATATT

Tests used:
[1] = biological target: T1, Dt2-6xHis; assay: EMSA; DIG Gel Shift Kit (Roche 3353591910), manufacturer's instructions; buffer, salt, pH and temperature not stated; conditions: protein: recombinant; tags: 6xHis (pET-DEST42); chain copies: 2; label: digoxigenin; blunt
[2] = biological target: GmSOC1-6xHis (soybean; cultivar of the cloned CDS not …, UniProt A0A2K7FY55 1-209); assay: as above; conditions: protein: recombinant; tags: 6xHis (pET-DEST42); chain copies: 2; label: digoxigenin; blunt
GmSOC1-6xHis, sequence (A0A2K7FY55 entry or part of it): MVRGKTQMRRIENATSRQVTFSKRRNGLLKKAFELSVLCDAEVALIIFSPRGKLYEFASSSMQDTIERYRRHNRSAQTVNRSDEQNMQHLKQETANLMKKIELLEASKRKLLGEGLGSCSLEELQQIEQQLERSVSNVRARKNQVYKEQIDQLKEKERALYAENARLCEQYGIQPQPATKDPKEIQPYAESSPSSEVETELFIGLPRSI

Row | Binder | binding result [1] | binding result [2]
1 | B1 | binds | binds
2 | B2 | binds | 
3 | B3 | binds | 
